Test results published in paper PMC9482650, “Quantitative fragmentomics allow affinity mapping of interactomes” (Nature Communications, 2022).

T1: DLG3_1, Q92796
T1 sequence (Q92796 125-227, limits assumed, looked up): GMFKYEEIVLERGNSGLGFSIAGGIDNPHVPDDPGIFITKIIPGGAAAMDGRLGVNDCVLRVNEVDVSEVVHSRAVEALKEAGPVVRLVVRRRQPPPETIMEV

T2: FRMPD1, Q5SYB0
T2 sequence (Q5SYB0 52-145, limits assumed, looked up): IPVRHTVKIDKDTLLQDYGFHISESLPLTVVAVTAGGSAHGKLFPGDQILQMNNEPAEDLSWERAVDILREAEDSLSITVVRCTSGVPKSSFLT

T3: LIN7B, Q9HAP6
T3 sequence (Q9HAP6 88-185, limits assumed, looked up): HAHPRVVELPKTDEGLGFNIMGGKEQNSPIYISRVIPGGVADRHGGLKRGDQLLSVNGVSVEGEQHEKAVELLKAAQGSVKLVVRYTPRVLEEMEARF

T4: LNX2_2, Q8N448
T4 sequence (Q8N448 334-432, limits assumed, looked up): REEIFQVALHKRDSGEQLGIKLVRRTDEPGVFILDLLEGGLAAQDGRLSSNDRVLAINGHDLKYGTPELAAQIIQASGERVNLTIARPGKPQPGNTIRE

T5: MPP2, Q14168
T5 sequence (Q14168 180-250, limits assumed, looked up): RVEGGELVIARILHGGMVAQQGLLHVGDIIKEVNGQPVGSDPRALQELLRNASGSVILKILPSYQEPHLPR

T6: PCLO, Q9Y6V0
T6 sequence (Q9Y6V0 4491-4600, limits assumed, looked up): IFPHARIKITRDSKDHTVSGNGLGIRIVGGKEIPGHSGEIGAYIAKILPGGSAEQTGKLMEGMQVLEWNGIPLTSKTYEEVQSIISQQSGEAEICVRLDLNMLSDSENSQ

T7: PDZRN3_1, Q9UPQ7
T7 sequence (Q9UPQ7 244-349, limits assumed, looked up): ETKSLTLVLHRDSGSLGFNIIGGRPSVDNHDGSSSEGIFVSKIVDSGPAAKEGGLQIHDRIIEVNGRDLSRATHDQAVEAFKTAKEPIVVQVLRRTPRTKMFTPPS

T8: RHPN1, Q8TCX5
T8 sequence (Q8TCX5 508-602, limits assumed, looked up): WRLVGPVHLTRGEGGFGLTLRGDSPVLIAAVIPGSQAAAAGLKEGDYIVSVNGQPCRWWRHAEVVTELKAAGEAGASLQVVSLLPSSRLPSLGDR

T9: SNTA1, Q13424
T9 sequence (Q13424 82-180, limits assumed, looked up): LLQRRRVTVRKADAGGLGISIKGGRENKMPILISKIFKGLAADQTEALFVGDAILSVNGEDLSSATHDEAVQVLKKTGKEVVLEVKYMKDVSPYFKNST

T10: SNTG2, Q9NY99
T10 sequence (Q9NY99 68-166, limits assumed, looked up): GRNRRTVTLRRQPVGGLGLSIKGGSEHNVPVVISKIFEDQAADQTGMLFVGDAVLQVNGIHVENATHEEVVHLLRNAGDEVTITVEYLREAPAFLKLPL

T11: TX1BP3, O14907
T11 sequence (O14907 10-122, limits assumed, looked up): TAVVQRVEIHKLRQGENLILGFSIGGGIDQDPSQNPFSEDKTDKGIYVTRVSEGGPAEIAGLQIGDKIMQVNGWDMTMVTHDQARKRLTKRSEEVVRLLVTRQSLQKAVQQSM


The binders below were run against T1, DLG3_1, Q92796 (assay: holdup assay). Details: plain residues with an end cap or a label only (N-terminal biotin on a linker: ado-ado).
Set-up: key: below the threshold = too weak to quantify, mostly under pKd 3.1 to 4

Q: EEDTAEKDEL [HSPA5, P11021] was tested. Which pKd did it give?
A: below the threshold

The binders below were run against DLG4_2, P78352 (assay: holdup assay). Details: plain residues with an end cap or a label only (N-terminal biotin on a linker: ado-ado).
DLG4_2, P78352, sequence (P78352 155-259): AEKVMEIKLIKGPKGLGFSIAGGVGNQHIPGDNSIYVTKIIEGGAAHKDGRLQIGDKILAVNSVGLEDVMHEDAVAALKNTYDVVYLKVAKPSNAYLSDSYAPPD
Set-up: key: below the threshold = too weak to quantify, mostly under pKd 3.1 to 4

Q: For EEDTAEKDEL [HSPA5, P11021], which pKd is on record?
A: 3.5

What follows are binders tested against DLG4_3, P78352 (assay: holdup assay). Details: plain residues with an end cap or a label only (N-terminal biotin on a linker: ado-ado).
DLG4_3, P78352, sequence (P78352 306-403): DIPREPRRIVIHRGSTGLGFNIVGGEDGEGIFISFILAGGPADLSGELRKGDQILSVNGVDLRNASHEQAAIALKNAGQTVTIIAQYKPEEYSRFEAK
Set-up: key: below the threshold = too weak to quantify, mostly under pKd 3.1 to 4

Q: With EEDTAEKDEL [HSPA5, P11021] as the binder, how does the pKd read?
A: below the threshold

Each binder was assayed against T2, FRMPD1, Q5SYB0 (assay: holdup assay). Details: plain residues with an end cap or a label only (N-terminal biotin on a linker: ado-ado).
Set-up: key: below the threshold = too weak to quantify, mostly under pKd 3.1 to 4

Q: Which pKd does the source give for EEDTAEKDEL [HSPA5, P11021] here?
A: below the threshold

Each binder was assayed against FRMPD2_1, Q68DX3 (assay: holdup assay). Details: plain residues with an end cap or a label only (N-terminal biotin on a linker: ado-ado).
FRMPD2_1, Q68DX3, sequence (Q68DX3 770-861): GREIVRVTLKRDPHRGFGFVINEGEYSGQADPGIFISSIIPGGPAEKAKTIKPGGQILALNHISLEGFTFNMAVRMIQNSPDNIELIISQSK
Set-up: key: below the threshold = too weak to quantify, mostly under pKd 3.1 to 4

Q: With EEDTAEKDEL [HSPA5, P11021] as the binder, how does the pKd read?
A: below the threshold

Each binder was assayed against GRIP2_3, Q9C0E4 (assay: holdup assay). Details: plain residues with an end cap or a label only (N-terminal biotin on a linker: ado-ado).
GRIP2_3, Q9C0E4, sequence (Q9C0E4 238-339): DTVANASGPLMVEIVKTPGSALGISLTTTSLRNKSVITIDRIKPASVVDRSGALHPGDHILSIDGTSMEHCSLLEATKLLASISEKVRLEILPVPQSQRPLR
Set-up: key: below the threshold = too weak to quantify, mostly under pKd 3.1 to 4

Q: For EEDTAEKDEL [HSPA5, P11021], which pKd is on record?
A: below the threshold

Each binder was assayed against HTRA1, Q92743 (assay: holdup assay). Details: plain residues with an end cap or a label only (N-terminal biotin on a linker: ado-ado).
HTRA1, Q92743, sequence (Q92743 360-477): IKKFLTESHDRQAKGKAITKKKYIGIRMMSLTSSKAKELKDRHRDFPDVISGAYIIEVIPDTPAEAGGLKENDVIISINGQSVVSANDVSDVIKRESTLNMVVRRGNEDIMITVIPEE
Set-up: key: below the threshold = too weak to quantify, mostly under pKd 3.1 to 4

Q: For EEDTAEKDEL [HSPA5, P11021], which pKd is on record?
A: below the threshold

What follows are binders tested against HTRA2, O43464 (assay: holdup assay). Details: plain residues with an end cap or a label only (N-terminal biotin on a linker: ado-ado).
HTRA2, O43464, sequence (O43464 355-458): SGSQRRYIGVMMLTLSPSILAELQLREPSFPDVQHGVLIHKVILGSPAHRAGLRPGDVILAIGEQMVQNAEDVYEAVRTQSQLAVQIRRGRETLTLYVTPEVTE
Set-up: key: below the threshold = too weak to quantify, mostly under pKd 3.1 to 4

Q: For EEDTAEKDEL [HSPA5, P11021], which pKd is on record?
A: below the threshold

What follows are binders tested against IL16_1, Q14005 (assay: holdup assay). Details: plain residues with an end cap or a label only (N-terminal biotin on a linker: ado-ado).
IL16_1, Q14005, sequence (Q14005 210-306): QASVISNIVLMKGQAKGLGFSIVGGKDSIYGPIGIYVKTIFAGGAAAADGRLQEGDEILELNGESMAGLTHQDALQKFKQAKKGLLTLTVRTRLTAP
Set-up: key: below the threshold = too weak to quantify, mostly under pKd 3.1 to 4

Q: With EEDTAEKDEL [HSPA5, P11021] as the binder, how does the pKd read?
A: below the threshold

The binders below were run against IL16_3, Q14005 (assay: holdup assay). Details: plain residues with an end cap or a label only (N-terminal biotin on a linker: ado-ado).
IL16_3, Q14005, sequence (Q14005 1107-1207): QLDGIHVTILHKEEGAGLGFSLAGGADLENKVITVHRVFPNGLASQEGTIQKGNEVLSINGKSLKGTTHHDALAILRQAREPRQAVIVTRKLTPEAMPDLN
Set-up: key: below the threshold = too weak to quantify, mostly under pKd 3.1 to 4

Q: Which pKd does the source give for EEDTAEKDEL [HSPA5, P11021] here?
A: below the threshold

The binders below were run against IL16_4, Q14005 (assay: holdup assay). Details: plain residues with an end cap or a label only (N-terminal biotin on a linker: ado-ado).
IL16_4, Q14005, sequence (Q14005 1229-1329): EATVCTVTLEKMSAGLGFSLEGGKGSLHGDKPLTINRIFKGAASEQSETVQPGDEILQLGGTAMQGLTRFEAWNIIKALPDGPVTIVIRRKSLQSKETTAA
Set-up: key: below the threshold = too weak to quantify, mostly under pKd 3.1 to 4

Q: With EEDTAEKDEL [HSPA5, P11021] as the binder, how does the pKd read?
A: 3.51

Each binder was assayed against Inadl_4, Q8NI35 (assay: holdup assay). Details: plain residues with an end cap or a label only (N-terminal biotin on a linker: ado-ado).
Inadl_4, Q8NI35, sequence (Q8NI35 547-651): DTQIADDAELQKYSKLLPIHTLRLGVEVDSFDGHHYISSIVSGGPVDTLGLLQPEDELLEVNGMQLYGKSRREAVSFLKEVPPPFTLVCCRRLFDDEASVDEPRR
Set-up: key: below the threshold = too weak to quantify, mostly under pKd 3.1 to 4

Q: EEDTAEKDEL [HSPA5, P11021] was tested. Which pKd did it give?
A: below the threshold

What follows are binders tested against Inadl_8, Q8NI35 (assay: holdup assay). Details: plain residues with an end cap or a label only (N-terminal biotin on a linker: ado-ado).
Inadl_8, Q8NI35, sequence (Q8NI35 1425-1530): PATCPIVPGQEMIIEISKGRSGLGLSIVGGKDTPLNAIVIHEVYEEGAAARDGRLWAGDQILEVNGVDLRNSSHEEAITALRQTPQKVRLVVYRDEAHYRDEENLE
Set-up: key: below the threshold = too weak to quantify, mostly under pKd 3.1 to 4

Q: For EEDTAEKDEL [HSPA5, P11021], which pKd is on record?
A: below the threshold

These binders were tested against LIMK2, P53671 (assay: holdup assay). Details: plain residues with an end cap or a label only (N-terminal biotin on a linker: ado-ado).
LIMK2, P53671, sequence (P53671 143-248): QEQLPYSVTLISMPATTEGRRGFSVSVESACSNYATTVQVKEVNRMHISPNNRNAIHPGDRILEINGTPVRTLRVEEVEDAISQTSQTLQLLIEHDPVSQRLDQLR
Set-up: key: below the threshold = too weak to quantify, mostly under pKd 3.1 to 4

Q: With EEDTAEKDEL [HSPA5, P11021] as the binder, how does the pKd read?
A: below the threshold

Each binder was assayed against T3, LIN7B, Q9HAP6 (assay: holdup assay). Details: plain residues with an end cap or a label only (N-terminal biotin on a linker: ado-ado).
Set-up: key: below the threshold = too weak to quantify, mostly under pKd 3.1 to 4

Q: EEDTAEKDEL [HSPA5, P11021] was tested. Which pKd did it give?
A: below the threshold

Each binder was assayed against T4, LNX2_2, Q8N448 (assay: holdup assay). Details: plain residues with an end cap or a label only (N-terminal biotin on a linker: ado-ado).
Set-up: key: below the threshold = too weak to quantify, mostly under pKd 3.1 to 4

Q: EEDTAEKDEL [HSPA5, P11021] was tested. Which pKd did it give?
A: below the threshold

What follows are binders tested against T5, MPP2, Q14168 (assay: holdup assay). Details: plain residues with an end cap or a label only (N-terminal biotin on a linker: ado-ado).
Set-up: key: below the threshold = too weak to quantify, mostly under pKd 3.1 to 4

Q: For EEDTAEKDEL [HSPA5, P11021], which pKd is on record?
A: below the threshold

The binders below were run against NHERF4_1, Q86UT5-2 (assay: holdup assay). Details: plain residues with an end cap or a label only (N-terminal biotin on a linker: ado-ado).
NHERF4_1, Q86UT5-2, sequence (Q86UT5 other isoform, or with tags, fused parts or gaps): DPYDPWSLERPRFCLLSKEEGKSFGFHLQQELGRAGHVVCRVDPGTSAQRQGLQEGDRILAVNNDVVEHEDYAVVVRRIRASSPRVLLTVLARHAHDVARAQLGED
Set-up: key: below the threshold = too weak to quantify, mostly under pKd 3.1 to 4

Q: With EEDTAEKDEL [HSPA5, P11021] as the binder, how does the pKd read?
A: 3.8

What follows are binders tested against PARD3_3, Q8TEW0 (assay: holdup assay). Details: plain residues with an end cap or a label only (N-terminal biotin on a linker: ado-ado).
PARD3_3, Q8TEW0, sequence (Q8TEW0 582-685): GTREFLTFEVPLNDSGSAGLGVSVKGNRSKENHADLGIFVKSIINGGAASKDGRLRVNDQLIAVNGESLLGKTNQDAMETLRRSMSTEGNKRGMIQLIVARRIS
Set-up: key: below the threshold = too weak to quantify, mostly under pKd 3.1 to 4

Q: For EEDTAEKDEL [HSPA5, P11021], which pKd is on record?
A: below the threshold

These binders were tested against T6, PCLO, Q9Y6V0 (assay: holdup assay). Details: plain residues with an end cap or a label only (N-terminal biotin on a linker: ado-ado).
Set-up: key: below the threshold = too weak to quantify, mostly under pKd 3.1 to 4

Q: How did the pKd turn out when EEDTAEKDEL [HSPA5, P11021] was run?
A: below the threshold

What follows are binders tested against PDLIM1, O00151 (assay: holdup assay). Details: plain residues with an end cap or a label only (N-terminal biotin on a linker: ado-ado).
PDLIM1, O00151, sequence (O00151 1-87): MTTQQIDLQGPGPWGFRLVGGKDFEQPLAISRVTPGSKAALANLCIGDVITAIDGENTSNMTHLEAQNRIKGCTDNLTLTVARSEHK
Set-up: key: below the threshold = too weak to quantify, mostly under pKd 3.1 to 4

Q: EEDTAEKDEL [HSPA5, P11021] was tested. Which pKd did it give?
A: below the threshold

Each binder was assayed against T7, PDZRN3_1, Q9UPQ7 (assay: holdup assay). Details: plain residues with an end cap or a label only (N-terminal biotin on a linker: ado-ado).
Set-up: key: below the threshold = too weak to quantify, mostly under pKd 3.1 to 4

Q: Which pKd does the source give for EEDTAEKDEL [HSPA5, P11021] here?
A: below the threshold

Each binder was assayed against T8, RHPN1, Q8TCX5 (assay: holdup assay). Details: plain residues with an end cap or a label only (N-terminal biotin on a linker: ado-ado).
Set-up: key: below the threshold = too weak to quantify, mostly under pKd 3.1 to 4

Q: How did the pKd turn out when EEDTAEKDEL [HSPA5, P11021] was run?
A: below the threshold

The binders below were run against T9, SNTA1, Q13424 (assay: holdup assay). Details: plain residues with an end cap or a label only (N-terminal biotin on a linker: ado-ado).
Set-up: key: below the threshold = too weak to quantify, mostly under pKd 3.1 to 4

Q: For EEDTAEKDEL [HSPA5, P11021], which pKd is on record?
A: below the threshold

What follows are binders tested against T10, SNTG2, Q9NY99 (assay: holdup assay). Details: plain residues with an end cap or a label only (N-terminal biotin on a linker: ado-ado).
Set-up: key: below the threshold = too weak to quantify, mostly under pKd 3.1 to 4

Q: Which pKd does the source give for EEDTAEKDEL [HSPA5, P11021] here?
A: below the threshold

Each binder was assayed against SNX27, Q96L92 (assay: holdup assay). Details: plain residues with an end cap or a label only (N-terminal biotin on a linker: ado-ado).
Set-up: key: below the threshold = too weak to quantify, mostly under pKd 3.1 to 4

Q: Which pKd does the source give for EEDTAEKDEL [HSPA5, P11021] here?
A: 3.61

Each binder was assayed against T11, TX1BP3, O14907 (assay: holdup assay). Details: plain residues with an end cap or a label only (N-terminal biotin on a linker: ado-ado).
Set-up: key: below the threshold = too weak to quantify, mostly under pKd 3.1 to 4

Q: With EEDTAEKDEL [HSPA5, P11021] as the binder, how does the pKd read?
A: below the threshold
